T1: FcgRIIb (human, UniProt P31994 43-217)
T1 construct: extracellular domain; also called FcγRIIb; not shown: His tag attached to the C terminus
T1 sequence (looked up): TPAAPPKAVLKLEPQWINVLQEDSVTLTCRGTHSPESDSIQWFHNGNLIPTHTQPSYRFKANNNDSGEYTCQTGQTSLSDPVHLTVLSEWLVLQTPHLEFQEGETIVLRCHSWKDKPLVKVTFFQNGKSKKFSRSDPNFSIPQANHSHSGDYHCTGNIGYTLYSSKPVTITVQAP


Assays:
[1] = biological target: T2, FcγRIa extracellular domain with C-terminal His tag (human, UniProt P12314 16-292); assay: SPR Biacore, relative FcγRIa binding vs GpH7-A5/GpH7-B3/GpL16-k0
T2 construct: extracellular domain; also called FcgRI; CD64; not shown: His tag at the C terminus
T2 sequence (P12314 16-292): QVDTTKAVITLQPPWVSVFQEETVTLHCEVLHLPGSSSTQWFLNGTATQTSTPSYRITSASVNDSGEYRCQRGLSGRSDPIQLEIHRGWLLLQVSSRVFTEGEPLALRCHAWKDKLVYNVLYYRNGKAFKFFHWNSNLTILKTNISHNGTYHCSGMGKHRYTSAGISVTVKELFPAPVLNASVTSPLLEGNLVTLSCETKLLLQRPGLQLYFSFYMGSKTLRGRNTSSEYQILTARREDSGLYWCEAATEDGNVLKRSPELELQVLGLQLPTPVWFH

FcgRIIb = biological target: T1, FcgRIIb; assay: SPR (Biacore); KD of H240-Kn061/H240-Hl071/L73-k0 divided by KD of the variant
Method: (§1) The antibodies were assessed for the binding to each FcgR. […] The resultant value was defined as relative KD, and used as an assessment indicator.
(§2) Analysis of interaction between obj ective antibody and the FcγR was carried out using Biacore T100 (GE Healthcare), Biacore T200, Biacore A100, and Biacore 4000. HBS-EP+ (GE Healthcare) was used as the running buffer, and the measurement temperature was set to 25° C. Chips produced by immobilizing the antigen peptide by the amine coupling method to a Series S sensor Chip CM5 (GE Healthcare), chips produced by allowing preliminarily biotinylated antigen peptides to interact with and immobilize onto a Series S Sensor Chip SA (certified) (GE Healthcare), chips produced by immobilizing Protein L (ACTIGEN, BioVision) to Series S Sencor Chip CM5 (GE Healthcare), or chips produced by immobilizing Protein A/G (Thermo Scientific) to Series S Sencor Chip CM5 (GE Healthcare) were used. Antibodies of interest were captured onto these chips, and allowed to interact to each FcγR diluted with running buffer.

FcgRIIIa F = biological target: T3, FcgRIIIa F (human, UniProt P08637 17-208); assay: as above
T3 construct: extracellular domain; also called FcγRIIIa F; 3aF; not shown: His tag attached to the C terminus
T3 sequence (P08637 17-208): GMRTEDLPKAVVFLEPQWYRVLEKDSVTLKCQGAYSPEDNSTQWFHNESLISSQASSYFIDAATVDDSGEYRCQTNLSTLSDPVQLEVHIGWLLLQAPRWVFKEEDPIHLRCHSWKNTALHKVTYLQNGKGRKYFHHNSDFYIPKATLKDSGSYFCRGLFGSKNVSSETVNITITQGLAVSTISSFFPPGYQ
Method: as §1, §2

FcgRIIIa V = biological target: T4, FcgRIIIa V (human, UniProt P08637 17-208); assay: as above
T4 construct: extracellular domain; also called FcγRIIIa V; not shown: His tag attached to the C terminus
T4 sequence (P08637 17-208 F176V limits assumed): as the sequence (P08637 17-208) above, with F160V counted along it
Method: as §1, §2

Binder	He/Con_1a [1]	Relative KD (FcgRIIb)	Relative KD (FcgRIIIa F)	Relative KD (FcgRIIIa V)
GpH7-A5/GpH7-B3 variant Q295_18N/GpL16-k0 (antibody, human IgG1, kappa, mutation in one H chain only; also called He Ab Q295_18N; Q295N) heavy 1: not shown heavy 2: not shown light: DIVMTQSPLSLPVTPGEPASISCQASESLVHSNRNTYLHWYLQKPGQSPQLLIYKVSNRFSGVPDRFSGSGSGTDFTLKISRVEAEDVGVYYCSQNTHVPPTFGQGTKVEIERTVAAPSVFIFPPSDEQLKSGTASVVCLLNNFYPREAKVQWKVDNALQSGNSQESVTEQDSKDSTYSLSSTLTLSKADYEKHKVYACEVTHQGLSSPVTKSFNRGEC	102 % of HeCon Ab (=100)	–	–	–
GpH7-A5/GpH7-B3 variant S239_01G/GpL16-k0 (antibody, human IgG1, kappa, mutation in one H chain only; also called He Ab S239_01G; S239G) heavy 1: not shown heavy 2: not shown light: DIVMTQSPLSLPVTPGEPASISCQASESLVHSNRNTYLHWYLQKPGQSPQLLIYKVSNRFSGVPDRFSGSGSGTDFTLKISRVEAEDVGVYYCSQNTHVPPTFGQGTKVEIERTVAAPSVFIFPPSDEQLKSGTASVVCLLNNFYPREAKVQWKVDNALQSGNSQESVTEQDSKDSTYSLSSTLTLSKADYEKHKVYACEVTHQGLSSPVTKSFNRGEC	101 % of HeCon Ab (=100)	–	–	–
H240-Kn061 (W236Y)/H240-Hl071/L73-k0 (antibody, human IgG1, kappa) heavy 1: QDQLVQSGAEVKKPGASVKVSCKASGFNIKDTYIQWVRQAPGQGLEWMGRIDPLRKQTKYREKFEGRVTITADTSTNTAYMELSSLRSEDTAVYYCVRSGREFDYWGQGTLVTVSSASTKGPSVFPLAPSSKSTSGGTAALGCLVKDYFPEPVTVSWNSGALTSGVHTFPAVLQSSGLYSLSSVVTVPSSSLGTQTYICNVNHKPSNTKVDKKVEPKSCDKTHTCPPCPAPEYYYGPSVFLFPPKPKDTLMISRTPEVTCVVVDVSDEDPEVKFNWYVDGVEVHNAKTKPREEQYNATYRVVSVLTVLHQDWLNGKEYKCKVSNKALPAPIEKTISKAKGQPREPQVCTLPPSRDELTKNQVSLWCLVKGFYPSDIAVEWESNGQPENNYKTTPPVLDSDGSFFLYSKLTVDKSRWQQGNVFSCSVMHEALHNHYTQKSLSLSP heavy 2: QDQLVQSGAEVKKPGASVKVSCKASGFNIKDTYIQWVRQAPGQGLEWMGRIDPLRKQTKYREKFEGRVTITADTSTNTAYMELSSLRSEDTAVYYCVRSGREFDYWGQGTLVTVSSASTKGPSVFPLAPSSKSTSGGTAALGCLVKDYFPEPVTVSWNSGALTSGVHTFPAVLQSSGLYSLSSVVTVPSSSLGTQTYICNVNHKPSNTKVDKKVEPKSCDKTHTCPPCPAPELLGGPSVFLFPPKPKDTLMISRTPEVTCVVVDVSHEDPEVKFNWYVDGVEVHNAKTKPREEQYNSTYRVVSVLTVLHQDWLNGKEYKCKVSNDALPMPIEETISKAKGQPREPQVYTLPPSRCELTKNQVSLSCAVKGFYPSDIAVEWESNGQPENNYKTTPPVLDSDGSFFLVSKLTVDKSRWQQGNVFSCSVMHEALHNHYTQKSLSLSP light: DIQMTQSPSSLSASVGDRVTITCRASQDIHKYIAWYQQKPGQAPRLLIQYTSTLQPGVPSRFSGSGSGTDYTFTISSLQPEDIATYYCLQYEQLRTFGGGTKVEIKRTVAAPSVFIFPPSDEQLKSGTASVVCLLNNFYPREAKVQWKVDNALQSGNSQESVTEQDSKDSTYSLSSTLTLSKADYEKHKVYACEVTHQGLSSPVTKSFNRGEC	–	0.8	0.8	1.2
H240-Kn061 (Y234A)/H240-Hl071/L73-k0 (antibody, human IgG1, kappa) heavy 1: QDQLVQSGAEVKKPGASVKVSCKASGFNIKDTYIQWVRQAPGQGLEWMGRIDPLRKQTKYREKFEGRVTITADTSTNTAYMELSSLRSEDTAVYYCVRSGREFDYWGQGTLVTVSSASTKGPSVFPLAPSSKSTSGGTAALGCLVKDYFPEPVTVSWNSGALTSGVHTFPAVLQSSGLYSLSSVVTVPSSSLGTQTYICNVNHKPSNTKVDKKVEPKSCDKTHTCPPCPAPEAYWGPSVFLFPPKPKDTLMISRTPEVTCVVVDVSDEDPEVKFNWYVDGVEVHNAKTKPREEQYNATYRVVSVLTVLHQDWLNGKEYKCKVSNKALPAPIEKTISKAKGQPREPQVCTLPPSRDELTKNQVSLWCLVKGFYPSDIAVEWESNGQPENNYKTTPPVLDSDGSFFLYSKLTVDKSRWQQGNVFSCSVMHEALHNHYTQKSLSLSP heavy 2: QDQLVQSGAEVKKPGASVKVSCKASGFNIKDTYIQWVRQAPGQGLEWMGRIDPLRKQTKYREKFEGRVTITADTSTNTAYMELSSLRSEDTAVYYCVRSGREFDYWGQGTLVTVSSASTKGPSVFPLAPSSKSTSGGTAALGCLVKDYFPEPVTVSWNSGALTSGVHTFPAVLQSSGLYSLSSVVTVPSSSLGTQTYICNVNHKPSNTKVDKKVEPKSCDKTHTCPPCPAPELLGGPSVFLFPPKPKDTLMISRTPEVTCVVVDVSHEDPEVKFNWYVDGVEVHNAKTKPREEQYNSTYRVVSVLTVLHQDWLNGKEYKCKVSNDALPMPIEETISKAKGQPREPQVYTLPPSRCELTKNQVSLSCAVKGFYPSDIAVEWESNGQPENNYKTTPPVLDSDGSFFLVSKLTVDKSRWQQGNVFSCSVMHEALHNHYTQKSLSLSP light: DIQMTQSPSSLSASVGDRVTITCRASQDIHKYIAWYQQKPGQAPRLLIQYTSTLQPGVPSRFSGSGSGTDYTFTISSLQPEDIATYYCLQYEQLRTFGGGTKVEIKRTVAAPSVFIFPPSDEQLKSGTASVVCLLNNFYPREAKVQWKVDNALQSGNSQESVTEQDSKDSTYSLSSTLTLSKADYEKHKVYACEVTHQGLSSPVTKSFNRGEC	–	1.2	0.8	0.9
H240-Kn061 (Y234H)/H240-Hl071/L73-k0 (antibody, human IgG1, kappa) heavy 1: QDQLVQSGAEVKKPGASVKVSCKASGFNIKDTYIQWVRQAPGQGLEWMGRIDPLRKQTKYREKFEGRVTITADTSTNTAYMELSSLRSEDTAVYYCVRSGREFDYWGQGTLVTVSSASTKGPSVFPLAPSSKSTSGGTAALGCLVKDYFPEPVTVSWNSGALTSGVHTFPAVLQSSGLYSLSSVVTVPSSSLGTQTYICNVNHKPSNTKVDKKVEPKSCDKTHTCPPCPAPEHYWGPSVFLFPPKPKDTLMISRTPEVTCVVVDVSDEDPEVKFNWYVDGVEVHNAKTKPREEQYNATYRVVSVLTVLHQDWLNGKEYKCKVSNKALPAPIEKTISKAKGQPREPQVCTLPPSRDELTKNQVSLWCLVKGFYPSDIAVEWESNGQPENNYKTTPPVLDSDGSFFLYSKLTVDKSRWQQGNVFSCSVMHEALHNHYTQKSLSLSP heavy 2: QDQLVQSGAEVKKPGASVKVSCKASGFNIKDTYIQWVRQAPGQGLEWMGRIDPLRKQTKYREKFEGRVTITADTSTNTAYMELSSLRSEDTAVYYCVRSGREFDYWGQGTLVTVSSASTKGPSVFPLAPSSKSTSGGTAALGCLVKDYFPEPVTVSWNSGALTSGVHTFPAVLQSSGLYSLSSVVTVPSSSLGTQTYICNVNHKPSNTKVDKKVEPKSCDKTHTCPPCPAPELLGGPSVFLFPPKPKDTLMISRTPEVTCVVVDVSHEDPEVKFNWYVDGVEVHNAKTKPREEQYNSTYRVVSVLTVLHQDWLNGKEYKCKVSNDALPMPIEETISKAKGQPREPQVYTLPPSRCELTKNQVSLSCAVKGFYPSDIAVEWESNGQPENNYKTTPPVLDSDGSFFLVSKLTVDKSRWQQGNVFSCSVMHEALHNHYTQKSLSLSP light: DIQMTQSPSSLSASVGDRVTITCRASQDIHKYIAWYQQKPGQAPRLLIQYTSTLQPGVPSRFSGSGSGTDYTFTISSLQPEDIATYYCLQYEQLRTFGGGTKVEIKRTVAAPSVFIFPPSDEQLKSGTASVVCLLNNFYPREAKVQWKVDNALQSGNSQESVTEQDSKDSTYSLSSTLTLSKADYEKHKVYACEVTHQGLSSPVTKSFNRGEC	–	1.3	0.8	0.9
H240-Kn061 (Y234G)/H240-Hl071/L73-k0 (antibody, human IgG1, kappa) heavy 1: QDQLVQSGAEVKKPGASVKVSCKASGFNIKDTYIQWVRQAPGQGLEWMGRIDPLRKQTKYREKFEGRVTITADTSTNTAYMELSSLRSEDTAVYYCVRSGREFDYWGQGTLVTVSSASTKGPSVFPLAPSSKSTSGGTAALGCLVKDYFPEPVTVSWNSGALTSGVHTFPAVLQSSGLYSLSSVVTVPSSSLGTQTYICNVNHKPSNTKVDKKVEPKSCDKTHTCPPCPAPEGYWGPSVFLFPPKPKDTLMISRTPEVTCVVVDVSDEDPEVKFNWYVDGVEVHNAKTKPREEQYNATYRVVSVLTVLHQDWLNGKEYKCKVSNKALPAPIEKTISKAKGQPREPQVCTLPPSRDELTKNQVSLWCLVKGFYPSDIAVEWESNGQPENNYKTTPPVLDSDGSFFLYSKLTVDKSRWQQGNVFSCSVMHEALHNHYTQKSLSLSP heavy 2: QDQLVQSGAEVKKPGASVKVSCKASGFNIKDTYIQWVRQAPGQGLEWMGRIDPLRKQTKYREKFEGRVTITADTSTNTAYMELSSLRSEDTAVYYCVRSGREFDYWGQGTLVTVSSASTKGPSVFPLAPSSKSTSGGTAALGCLVKDYFPEPVTVSWNSGALTSGVHTFPAVLQSSGLYSLSSVVTVPSSSLGTQTYICNVNHKPSNTKVDKKVEPKSCDKTHTCPPCPAPELLGGPSVFLFPPKPKDTLMISRTPEVTCVVVDVSHEDPEVKFNWYVDGVEVHNAKTKPREEQYNSTYRVVSVLTVLHQDWLNGKEYKCKVSNDALPMPIEETISKAKGQPREPQVYTLPPSRCELTKNQVSLSCAVKGFYPSDIAVEWESNGQPENNYKTTPPVLDSDGSFFLVSKLTVDKSRWQQGNVFSCSVMHEALHNHYTQKSLSLSP light: DIQMTQSPSSLSASVGDRVTITCRASQDIHKYIAWYQQKPGQAPRLLIQYTSTLQPGVPSRFSGSGSGTDYTFTISSLQPEDIATYYCLQYEQLRTFGGGTKVEIKRTVAAPSVFIFPPSDEQLKSGTASVVCLLNNFYPREAKVQWKVDNALQSGNSQESVTEQDSKDSTYSLSSTLTLSKADYEKHKVYACEVTHQGLSSPVTKSFNRGEC	–	0.9	0.8	0.9
